Experimental data from patent US20170065725A1 (published 2017).
Like-named read-outs stand apart in the source and are kept apart here.

B1: G22C rhTSH (TSH G22C (alpha)) (ligand)
alpha: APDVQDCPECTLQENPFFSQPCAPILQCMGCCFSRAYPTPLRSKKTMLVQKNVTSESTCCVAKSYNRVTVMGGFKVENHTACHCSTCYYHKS
beta: FCIPTEYTMHIERRECAYCLTINTTICAGYCMTRDINGKLFLPKYALSQDVCTYRDFIYRTVEIPGCPLHVAPYFSYPVALSCKCGKCNTDYSDCIHEAIKTNYCTKPQKSYLVGFSV
modifications: Alpha Cys22 may carry a cap after expression; whether the assayed sample was capped is not stated. N-glycans at alpha Asn52, Asn78 and beta Asn23.
notes: Cysteine mutant without PEG, produced in CHO cells; also called alphaG22C TSH
B2: N-terminal mono-PEGylated rhTSH with 40 kD PEG (ligand)
alpha: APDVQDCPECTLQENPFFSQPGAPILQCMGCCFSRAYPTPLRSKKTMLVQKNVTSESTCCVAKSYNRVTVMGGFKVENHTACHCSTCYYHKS
beta: B1 beta
modifications: One 40 kD aldehyde PEG on an N-terminal amine (alpha Ala1 or beta Phe1; which subunit is not stated). N-glycans at alpha Asn52, Asn78 and beta Asn23. None is carried by the letters.
notes: also called 40 kD N-terminal
B3: Recombinant human TSH (rhTSH), THYROGEN Thyroid Stimulating Hormone (ligand)
alpha: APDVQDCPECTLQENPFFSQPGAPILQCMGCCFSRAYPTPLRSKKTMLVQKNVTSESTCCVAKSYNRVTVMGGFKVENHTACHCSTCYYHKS
beta: B1 beta
modifications: N-linked glycans at alpha Asn52 and Asn78 and beta Asn23; not carried by the letters.
notes: also called TSH control; control TSH; copies: 1 + 1
B4: 40 kD linear G22C (PEGylated Cys-mutant TSH) (ligand)
alpha: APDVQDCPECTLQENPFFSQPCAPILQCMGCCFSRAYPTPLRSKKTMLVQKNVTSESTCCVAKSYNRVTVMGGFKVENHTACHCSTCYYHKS
beta: B1 beta
modifications: Chain 1 (alpha) pos 22: Cys carrying a 40 kD linear cysteine-reactive PEG, written C. N-glycans at alpha Asn52, Asn78 and beta Asn23.
notes: also called 40 KD G22C
B5: 40 kD 2-arm PEG G22C (ligand)
alpha: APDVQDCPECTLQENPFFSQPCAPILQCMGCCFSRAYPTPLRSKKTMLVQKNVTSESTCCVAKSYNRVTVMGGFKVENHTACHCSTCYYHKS
beta: B1 beta
modifications: Chain 1 (alpha) pos 22: Cys carrying a 40 kD 2-arm (branched) cysteine-reactive PEG, written C. N-glycans at alpha Asn52, Asn78 and beta Asn23.
B6: 40 kD 4-arm PEG G22C (ligand)
alpha: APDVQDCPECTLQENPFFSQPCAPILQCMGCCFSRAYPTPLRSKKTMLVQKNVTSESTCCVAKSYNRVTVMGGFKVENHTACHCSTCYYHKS
beta: B1 beta
modifications: Chain 1 (alpha) pos 22: Cys carrying a 40 kD 4-arm (branched) cysteine-reactive PEG, written C. N-glycans at alpha Asn52, Asn78 and beta Asn23.

How the values were obtained:
[1] = target: T1, porcine TSH receptor (immobilized, TSH Receptor Autoantibody 2nd Generation ELISA kit, RSR Limited) (porcine, UniProt Q8SPP9 22-764, limits assumed); experiment: competition ELISA; inhibition of biotinylated rhTSH binding to immobilized porcine TSH receptor
T1 construct: Bought kit plates; the construct is not described
Description: (§1) Purified PEGylated conjugates were analyzed by in vitro porcine TSH receptor binding assay using the TSH Receptor Autoantibody 2nd Generation ELISA kit from RSR Limited (Kronus, Star, Id.). Instead of using the biotinylated human monoclonal autoantibody to the TSH receptor provided by the kit, we biotinylated Thyrogen® (rhTSH) to use for competitive inhibition of binding to TSH receptor. Binding of biotinylated rhTSH to immobilized porcine TSH receptor was inhibited by either rhTSH control or PEGylated rhTSH conjugates and IC₅₀ values were measured.
(§2) Thyrogen® was biotinylated with 1.7 to 1.8 biotins per protein using the ChromaLink™ Biotin Labeling Reagent according to the manufacturer's protocol (QED Bioscience Inc., San Diego, Calif.) and buffer exchanged into 50 mM sodium phosphate, 150 mM sodium chloride pH 7.0 with a Zeba™ Desalt Spin Column (Thermo Scientific, Rockford, Ill.). In vitro measurement of receptor binding was performed by competition of biotinylated Thyrogen® and PEG-rhTSH conjugate for binding to porcine TSH receptor immobilized onto 96-well plates supplied with the TSH Receptor Autoantibody 2nd Generation ELISA kit from RSR Limited (Kronus, Star, Id.). PEG-rhTSH conjugates were serially diluted 1:5 from 16 μM to 41 pM in assay buffer (100 mM HEPES pH 7.5, 20 mM EDTA, 1% BSA, 0.5% Triton X-100) and mixed 1:1 with biotinylated Thyrogen® diluted 1000-fold in assay buffer. The mixture was added to each receptor-coated well and incubated at 25° C. for 25 minutes. Unbound rhTSH was washed away and streptavidin peroxidase was added at 25° C. for 20 minutes according to the RSR Limited ELISA protocol to determine the amount of biotinylated Thyrogen® bound to the plate. The plate was then washed three times to remove excess unbound streptavidin peroxidase and then tetramethylbenzidine (TMB) was added to each well and incubated in the dark at 25° C. for 30 minutes. The reaction which was quenched with 0.5M sulfuric acid stop buffer and the absorbance of each well was read at 450 nm using a SpectraMax® 340pc plate reader (Molecular Devices, Sunnyvale, Calif.). The data was fit using a sigmoidal dose response equation with GraphPad Prism software to generate IC₅₀ values.

[2] = target: T1, porcine TSH receptor (immobilized, TSH …); experiment: as above; remark: listed apart in the source
Description: as §1, §2

[3] = target: T1, porcine TSH receptor (immobilized, TSH …); experiment: in vitro TSH receptor binding assay (competition ELISA)

T1 sequence (Q8SPP9 22-764 limits assumed): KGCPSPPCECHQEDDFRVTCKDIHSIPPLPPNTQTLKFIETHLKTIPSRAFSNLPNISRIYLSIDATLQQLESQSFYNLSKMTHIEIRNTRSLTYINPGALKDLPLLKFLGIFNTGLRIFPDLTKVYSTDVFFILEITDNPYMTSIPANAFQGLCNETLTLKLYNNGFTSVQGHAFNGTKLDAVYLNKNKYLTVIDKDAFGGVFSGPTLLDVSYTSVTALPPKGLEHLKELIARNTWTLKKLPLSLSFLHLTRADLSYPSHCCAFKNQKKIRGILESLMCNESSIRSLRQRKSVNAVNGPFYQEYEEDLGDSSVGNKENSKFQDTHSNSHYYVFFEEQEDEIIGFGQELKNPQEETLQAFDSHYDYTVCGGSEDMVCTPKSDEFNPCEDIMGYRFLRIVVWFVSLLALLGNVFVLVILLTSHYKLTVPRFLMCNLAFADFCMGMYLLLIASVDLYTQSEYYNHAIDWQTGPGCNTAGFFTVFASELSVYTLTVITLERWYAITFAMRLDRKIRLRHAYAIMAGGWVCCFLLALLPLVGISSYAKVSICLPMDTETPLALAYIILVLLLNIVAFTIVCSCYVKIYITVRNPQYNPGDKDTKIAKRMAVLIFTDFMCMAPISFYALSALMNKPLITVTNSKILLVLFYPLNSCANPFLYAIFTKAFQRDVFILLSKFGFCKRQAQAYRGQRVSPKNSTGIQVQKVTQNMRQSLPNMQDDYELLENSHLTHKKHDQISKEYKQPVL

Row | Binder | IC50 [1] [nM] | fold change (IC50 against rhTSH) [1] [fold] | IC50 [2] [nM] | fold change (IC50 against rhTSH) [2] [fold] | fold decrease of receptor binding affinity against rhTSH control [3] [fold]
1 | B1 | 41.6 | 1.5 |  |  | 
2 | B2 | 319 | 11.4 | 397 | 10.8 | 11.1
3 | B3 | 28 | 1 | 36.7 | 1 | 
4 | B4 | 248 | 8.9 |  |  | 
5 | B5 | 417 | 14.9 |  |  | 
6 | B6 | 743 | 26.5 |  |  | 
